{"source": "the DeepSol protein solubility set", "data": [{"experiment": "soluble on expression in E. coli; label from the status in PepcDB or PDB records", "values": [{"sequence": "MRLERVLEEARAKGYPIEDNGLGNLWVVLPRERFKEEMAHYKAMGFNFLADIVGLDYLTYPDPRPERFAVVYELVSLPGWKDGDGSRFFVRVYVPEEDPRLPTVTDLWGSANFLEREVYDLFGIVFEGHPDLRKILTPEDLEGHPLRKDYPLGETPTLFREGRYIIPAEFRAALTGKDPGLTFYKGGSRKGYRSLWADLKKAREVKG", "soluble on expression in E. coli": "soluble"}, {"sequence": "SATFVSELEAAKKNLSEALGDNVKQYWANLKLWFKQKISKEEFDLEAHRLLTQDNVHSHNDFLLAILTRCQILVSTPDGAGSLPWPGGSAAKPGKPKGKKKLSSVRQKFDHRFQPQNPLSGAQQFVAKDPQDDDDLKLCSHTMMLPTRGQLEGRMIVTAYEHGLDNVTEEAVSAVVYAVENHLKDILTSVVSRRKAYRLRDGHFKYAFGSNVTPQPYLKNSVVAYNNLIESPPAFTAPCAGQNPASHPPPDDAEQQAALLLACSGDTLPASLPPVNMYDLFEALQVHREVIPTHTVYALNIERIITKLWHPNHEELQQDKVHRQRLAAKEGLLLC", "soluble on expression in E. coli": "soluble"}, {"sequence": "LPELSLEELIRMHDHICFLKSLGYTDYQKHLKKSKVLIVGLGKLGANIAYNLCNVGVGSVILFDRTFISPTEISDIYTKDAIGMKKADYLRKKLTSIFPEIEVQNLPDTINISNYLNDSDFDIIIVNSEHFNIKLLSELNDLLYKISTPYMYAWIEGSRGYIGPLIYPPDTSCFNCYLTWRFFGTFMEDKIKAINNYGSSGYIFPLDKIIGALTVLEVCKAIGSLGTPLFNKIILVEVLPTLTIRYIPILKDPKCNVCEG", "soluble on expression in E. coli": "not soluble"}, {"sequence": "MKNIIACIDGSPTTFATCEASAWVASKINAPLILLHALDKTMRPVVSEFSGQIGLGSQEELLNELAELDEARSKVALKHGKKLLEEATEWVIKKGLTNVEQLQRHGSLLESLIDLENQLRVLVIGKLGEDQSSNKTIGSQLESIIRSIKSHTLVVTSPFSIPTSYLIAFDGSPTSEKLIEKAIKTPLLFGLDCHFVMVDDFAAKSAAFEKAAIKLKNAGLSVHEDILSGSVDEALLKYQKDHQIGMMVMGAYGHSTLRQFFLGSNTTKVLIKSEVPLLLIR", "soluble on expression in E. coli": "not soluble"}, {"sequence": "MEATNKMKVEVWSDIMCPFCYIGKRNYEAGLKQFADSNNIEIIWKSFQLDPNIPQDTAVTENVYQYLAERKGMSYEQSVQMHDSVVATAKKAGLDYNFDKAVIANSFNAHRMIQLAKTKDLGDAAEERLFYAYFTEGKNVGNSYVLIELGKDIGLTEAEVQTALTDDTYAYKVRQDVEEAQHLGVRGVPFFVFDRKYAVSGAQPPQAFLETLEKSFSEWRKEHPASPFEVSEGPSCSVDGCD", "soluble on expression in E. coli": "not soluble"}, {"sequence": "MDEQEFRKQLTLKPVEEEHIDQFNELLSYVFQVTEADIEESGFENKRAFIKSKQPILELSKVFGWFHENQLISQIAIYPCEVNIHGALYKMGGVTGVGTYPEYANHGLMKDLIQTALEEMRQDKQWISYLFPYNIPYYRRKGWEIMSDKLSFKIRDTQLPKTVPVPGMIERLAVDHPDVFDVYARFARQNHGALIRSAFNWEEYWRFENEEERTAAVYYGANQEPLGVLFYWVADEVFHIKEMFYLNQEARNGLWNFITAHFSMVYWVKGDIYKNEPLAFLLEDSQIKESIEPYYMARIVDVKAFLENFPFESTAKPFHFVVKDPVAEWNNGIFGLIWDENDQVTITDEPLGTAVHLDIQTLTCLVMNYRRPSYLHRIERIDTDKETLNSLERIFPDQEAYFSDYF", "soluble on expression in E. coli": "soluble"}, {"sequence": "QRSYERDFPHHDRICIVKTHGTRQSQEGDKPEELDFSQVSGGVAPAIQEEIPGVELATRTTLYGTSKMILEDNKTYETKTLLAEPAFLDMFGVELIAGVRDSALRDNMTCLISESLARKMGGDVLGKRLRPAESKSDRAITIGGVFEDLPHNSSIQADMLLPITWMPAESLNNWIGNDRYIAYVRLRPGVSPESLDEALLEMQKRHQDMEVFRKAGVELHYSLTPFNRLRLEDPTLVNMLRIQQ", "soluble on expression in E. coli": "soluble"}, {"sequence": "MSLRTEFGRLQEHPIVDFKRGKEVTIYLNGKPVKAYEGETVAAALYAAGVRVFSRSFRWHRPRGFFCAIGKCSACMMEVDGIPNVRTCKVYVRDGMQVRTQSGMPDAEKDVFSILDDVIDKVFPHGSHYTKFTTSKKAREFMVKRMRKFTGFGNPPKAVFQGRAELEEIETDVLVIGGGPGGMSAAINAGKYGAKVLLVDENPFLGGQLVKQTHRFFGSAKERAGTRGIKIAGILEEELNSIENVEVRRETRVFGIYNGEAGAYQRLNDDEGKLLRIKAKKIVVATGAYERTLIFENNDLPGVYGAGGVQTLMNVYGIKPGNMGLIVGSGNVGLILTYQLMQAGVNVAAIVEAMPRIGGYFVHAAKVRRLGVPIYVRHTILKAIGRKSVEGAVIAQLDDRWQPIPGTEKEIKCDFICVAVGLSPTHELLYQAGCEMKFVPELGGIVPLRTRFNETSVKGLYVAGDVAGIEEATAAIMEGRIAGIHAAVTLGYGGEEAKKELDEAVKEIEEFRAGPFGERIVCGLEKCTLESEGHHHHHH", "soluble on expression in E. coli": "not soluble"}, {"sequence": "MAHHHHHHMGRSFKVFLSNYVYRYGAAVWELRVCIERCAFPDYYAASPHDCAASSHYHAAYPPRSCSECGNHLSDPTELVSTSFRGRTGPAWLFSKVINVCEGQYEDRMMTTGQHTIVDIYCNNCRNNVGWKYEDSSEESQKYKKGKYILEKALLSFLVIDQHGKEHEFELKSSDCDF", "soluble on expression in E. coli": "not soluble"}, {"sequence": "MLANFSQKAQETLVGELEELVSTTNLKGVITYCNDAFCRVAEYTHEELVGQNHNIVRHSDMPKAAFGDMWARLKEGKAWRGMVKNSTKSGGYYWVDAYVTPIYEKNQVVGYQSVRVKPKREWVDIAAKAYKGMLAAEKAGRTWSLKINETVRYAILLGALTAPAVAYALSVEGPLAWLASALPASVLALLFRQELIDTPQQLKKLQKQYDSVSRLIYSGNSAFSIADFHIKMLSARIRTVLGRMTDSALPLQNCAEELSQTTSEVSAALNQQNSDIRRVRDATQEVESSANSVSSSTNDAHMLIDDTLKSCMMAKETIDQTHTNLAQLSLQA", "soluble on expression in E. coli": "not soluble"}, {"sequence": "MGSDKIHHHHHHMTEIQTIRKKVEQQITSLQNETDEIAEFNQAKVLDAFQENKVSDFHFNPSTGYGYDDEGRDTLERVYASVFKTEAALVRPQIISGTHAISTVLFGILRPGDELLYITGEPYDTLEEIVGIRSEGQGSLKDFQIGYDAVPLLPNGEIDYPAVSKKISANTKMIGIQRSRGYADRPSFTIEKIKEMVTFVKNINPNIIVFVDNCYGEFVERIEPTEVGADIIAGSLIKNPGGGLAKTGGYIAGRNTLVDLCGYRLTTPGIGREAGASLYSLLEMYQGFFLAPHVTAQAIKGARFTAAMLAEFGVEADPLWDAKRTDLIQSVSFHSKDKMIAFAQAIQAASPVNAHVLPIGAYMPGYEDDVIMAAGTFIQGASLELTADGPIREPYQLYVQGGLTYEHVKIAVTRAIENSL", "soluble on expression in E. coli": "not soluble"}, {"sequence": "MSQWYELQQLDSKFLEQVHQLYDDSFPMEIRQYLAQWLEKQDWEHAANDVSFATIRFHDLLSQLDDQYSRFSLENNFLLQHNIRKSKRNLQDNFQEDPIQMSMIIYSCLKEERKILENAQRFNQAQSGNIQSTVMLDKQKELDSKVRNVKDKVMCIEHEIKSLEDLQDEYDFKCKTLQNREHETNGVAKSDQKQEQLLLKKMYLMLDNKRKEVVHKIIELLNVTELTQNALINDELVEWKRRQQSACIGGPPNACLDQLQNWFTIVAESLQQVRQQLKKLEELEQKYTYEHDPITKNKQVLWDRTFSLFQQLIQSSFVVERQPCMPTHPQRPLVLKTGVQFTVKLRLLVKLQELNYNLKVKVLFDKDVNERNTVKGFRKFNILGTHTKVMNMEESTNGSLAAEFRHLQLKEQKNAGTRTNEGPLIVTEELHSLSFETQLCQPGLVIDLETTSLPVVVISNVSQLPSGWASILWYNMLVAEPRNLSFFLTPPCARWAQLSEVLSWQFSSVTKRGLNVDQLNMLGEKLLGPNASPDGLIPWTRFCKENINDKNFPFWLWIESILELIKKHLLPLWNDGCIMGFISKERERALLKDQQPGTFLLRFSESSREGAITFTWVERSQNGGEPDFHAVEPYTKKELSAVTFPDIIRNYKVMAAENIPENPLKYLYPNIDKDHAFGKYYSR", "soluble on expression in E. coli": "soluble"}, {"sequence": "MGTAAERWERAQMFFDAKDYAVAARILDGLVDEVPEQTGPRLLLARSYYHSAQLGRAEAELRILVERDPVEHYARLMLGRTLQRQGRDDEADSQLRIASALAGLEHHHHHH", "soluble on expression in E. coli": "not soluble"}, {"sequence": "MHGADIKAIVFDLDGTLYEETEHFDYYAERVAKRLREADRRRFWDDYRAVLADCHPLRIGSMYDAKEDLIVWLEEGAVRKAFRWSGEPLTKREIETVYKKPVAVDLDRFFSIGDLWWVSSSIGRHYGLTNEDTYAAFLETREWMMGPEFKMNGAPGLAETLVELHEKAALVLMTNSPEPDSEAILWKLRLADVFHHKIFQAAKPMKTAAHLEAIRARFGVDYRQMLCVGDNIGNDIAPARRLGCRTMLVDTYGLAKQGVADFIVASTSACVPVLRRLL", "soluble on expression in E. coli": "not soluble"}, {"sequence": "MAVIVLAGTIGAGKSSLTALIANRLGSEAFYESVDDNEVLPLFYAEPEKYAFLLQIYFLNKRFDSIKQALTHENNVLDRSIYEDSLLFHLNADLGRANETEVKVYDDLLQNMLQELPYAAHKKRPDLLVHIRISFPKMLERIKKRGRPYEQIETDPTLYDYYQMLNERYDQWYEDYDESPKIQIDGDKYDFVEDPEACQYVLALIEKKIEELER", "soluble on expression in E. coli": "not soluble"}, {"sequence": "MNIAALLSGGVDSSVVVHLLCEQGYKPTLFYIKIGMDGAEYMDCSAEEDIEMSTAIARKYGLSLEVVDLHKEYWENVAAYAIDKIKKGLTPNPDVMCNKLIKFGCFEQQVGKNFDFTATGHYATTIRQDGKTWLGTAKDPVKDQTDFLAQIDYLQVSKLMFPIGGLMKQEVREIASRAGLPSARRKDSQGICFLGKINYNDFVRRFLGEREGAIIELETGKKVGTHRGYWFHTIGQRKGLGLSGGPWFVIKKDVEENIIYVSHGYGVETQFGSEFRINDFHFITENPWKDAGKEIDITFKIRHTPEFTKGKLVQEEGGQFRILSSEKLQGIAPGQFGVIYDEEAGICVGSGEITRLEHHHHHH", "soluble on expression in E. coli": "soluble"}, {"sequence": "MEIGDVSTGYLEDALIEFSGRSKRRRLSFNGAEDKPDNDLDHSQNHWGLSENYSCTSSQFAEKNDYDEKKRVVYPFGVVKPGGREEDITLNDINKRILMPSARPVRHPVGDFACRPCVSADGPGLSGKAVVAFTKIQTLGRGTITIIRTKG", "soluble on expression in E. coli": "soluble"}, {"sequence": "MTPLERYQADLQRPDFFHDAAQANAVKHLQRLYDDLVAADHAKPGLFGKLLGRKSGGPVKGLYFWGGVGRGKTYLVDTFFESLPFEQKVRTHFHRFMKRVHEELKTLKGEKNPLTIIGKRFADEARVICFDEFFVSDITDAMILATLLEELFKNGVSLVATSNIVPDGLYKDGLQRARFLPAIALLKEHTEIVNVDSGVDYRLRALEQAELFHWPLSEQVEEEMARSFKALTPDCAKAQRDEALMIENREIRARLTCDDVAWFEFRELCDGPRSQNDYIELAKIFHAVLISNVEQMGVTKDDMARRFINLVDEFYDRSVKLIISAEVELKDLYSGGRLEFEFQRTLSRLLEMQSHEYLTRPHRPAAALEHHHHHH", "soluble on expression in E. coli": "not soluble"}, {"sequence": "MTVFRQENVDDYYDTGEELGSGQFAVVKKCREKSTGLQYAAKFIKKRRTKSSRRGVSREDIEREVSILKEIQHPNVITLHEVYENKTDVILILELVAGGELFDFLAEKESLTEEEATEFLKQILNGVYYLHSLQIAHFDLKPENIMLLDRNVPKPRIKIIDFGLAHKIDFGNEFKNIFGTPEFVAPEIVNYEPLGLEADMWSIGVITYILLSGASPFLGDTKQETLANVSAVNYEFEDEYFSNTSALAKDFIRRLLVKDPKKRMTIQDSLQHPWIKPKDTQQALSRKASAVNMEKFKKFAARKKWKQSVRLISLCQRLSRSFLSRSNMSVARSD", "soluble on expression in E. coli": "soluble"}, {"sequence": "MAHHHHHHMEKYEFPEDYVNPRNIPRIAYIPDVAAYVSNGGGADTVISNLLMESSKYEHMEKRLVSSLANLDYKIPTIKKTLNSLEFLQKQLEEAEQQEEDGKRAGIRSYYCLTDSVFGEAIVRPQKTVHLWMGAKVMVEYTFEEASALLKKNLSNAEVNMRNTKEDLAWLQEQITNLQINISRVYNYDLKNKRAKD", "soluble on expression in E. coli": "not soluble"}]}]}
